From patent publication US20200231681A1

What was measured:
[1] = target: EGFR on HCC827 cells (EGFR E746-A750 deletion mutation) (human) (UniProt P00533); experiment: cell-based or functional assay
[2] = target: c-Met receptor on human tumor cells (MKN45, NCI-H820, HCC827) (human) (UniProt P08581); experiment: cell-based or functional assay
[3] = target: cynomolgus monkey EGFR ECD (SiNo. Biological, 90285-008B) (cynomolgus monkey); experiment: SPR (BIAcore), antibody captured by anti-human IgG Fc, antigen as analyte, 1:1 Langmuir
[4] = target: c-Met receptor on human tumor cells (MKN45, NCI-H820, HCC827) (human) (UniProt P08581); experiment: flow cytometry on MKN45 cells, 100 nM control antibody, anti-human kappa LC-FITC (column of hu8C4)
[5] = target: c-Met receptor on human tumor cells (MKN45, NCI-H820, HCC827) (human) (UniProt P08581); experiment: flow cytometry on MKN45 cells, 100 nM control antibody, anti-human kappa LC-FITC (column of OA-5D5)

Chain of c-Met receptor on human tumor cells (MKN45, NCI-H820, HCC827) (human) (P08581 25-1390): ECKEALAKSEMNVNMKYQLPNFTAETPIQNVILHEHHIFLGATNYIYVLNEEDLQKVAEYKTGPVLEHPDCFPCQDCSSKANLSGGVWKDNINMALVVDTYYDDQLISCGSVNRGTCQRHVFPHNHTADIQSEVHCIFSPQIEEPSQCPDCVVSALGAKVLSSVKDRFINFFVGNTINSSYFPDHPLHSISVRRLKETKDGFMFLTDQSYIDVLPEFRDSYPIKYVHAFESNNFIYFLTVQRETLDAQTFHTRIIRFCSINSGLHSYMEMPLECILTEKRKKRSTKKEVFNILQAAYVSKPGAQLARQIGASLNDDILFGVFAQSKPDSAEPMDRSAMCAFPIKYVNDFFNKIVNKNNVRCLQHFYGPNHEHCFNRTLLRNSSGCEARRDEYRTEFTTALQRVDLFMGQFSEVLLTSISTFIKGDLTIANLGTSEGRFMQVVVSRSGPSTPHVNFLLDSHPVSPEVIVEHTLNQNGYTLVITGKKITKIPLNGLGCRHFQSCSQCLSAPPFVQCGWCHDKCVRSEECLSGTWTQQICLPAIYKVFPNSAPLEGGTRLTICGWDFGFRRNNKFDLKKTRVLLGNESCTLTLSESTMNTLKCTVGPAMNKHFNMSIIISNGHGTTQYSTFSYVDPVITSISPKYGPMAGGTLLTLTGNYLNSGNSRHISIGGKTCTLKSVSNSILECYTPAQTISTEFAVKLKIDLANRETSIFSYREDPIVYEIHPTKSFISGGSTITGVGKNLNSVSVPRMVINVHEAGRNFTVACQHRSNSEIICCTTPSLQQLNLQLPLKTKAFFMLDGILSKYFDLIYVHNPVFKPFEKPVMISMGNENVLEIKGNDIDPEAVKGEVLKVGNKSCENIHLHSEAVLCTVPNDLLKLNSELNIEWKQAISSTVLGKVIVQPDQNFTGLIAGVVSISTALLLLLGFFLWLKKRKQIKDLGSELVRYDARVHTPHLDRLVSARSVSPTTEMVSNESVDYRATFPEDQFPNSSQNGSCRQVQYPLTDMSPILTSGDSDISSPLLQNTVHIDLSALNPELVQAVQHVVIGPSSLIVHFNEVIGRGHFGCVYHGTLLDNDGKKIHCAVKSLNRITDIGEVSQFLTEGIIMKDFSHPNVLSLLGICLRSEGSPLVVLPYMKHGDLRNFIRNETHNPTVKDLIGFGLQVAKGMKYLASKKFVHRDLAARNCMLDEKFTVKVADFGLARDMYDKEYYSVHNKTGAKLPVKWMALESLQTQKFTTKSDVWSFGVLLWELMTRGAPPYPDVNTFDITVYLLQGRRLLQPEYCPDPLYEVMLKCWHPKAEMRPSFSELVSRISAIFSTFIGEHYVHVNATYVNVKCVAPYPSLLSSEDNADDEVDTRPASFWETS

Row | c-Met on the surface of HCC827 cells after 18 h with 100 nM antibody, Means (geo MFI); human IgG control 5653 [2] | decrease of c-Met on the surface of HCC827 cells [2] | Substance | other results
1 | 3660 geo MFI | 40% | C-EM1 (EM1-MAb, Janssen; control c-Met/EGFR bispecific antibody) | EGFR on the surface of HCC827 cells after 18 h with 100 nM antibody, Means (geo MFI); human IgG control 11494 [1]: 11500 geo MFI
2 | 3270 geo MFI | 40% | C-LA480 (LA480, Lilly; control c-Met antibody) | –
3 | – | – | Vectibix (antibody) | Kd [3]: 0.209 nM
4 | – | – | human IgG antibody (negative control) | FITC MFI [IgG control] (FITC geo-mean (MFI)) [4]: 127; FITC MFI [IgG control] (FITC geo-mean (MFI)) [5]: 127
